Results published in patent publication US20260250325A1, “Antiviral Polypeptide Membrane Fusion Inhibitor, and Preparation Method and Application Thereof” (priority 2025, published 2026).
Like-named read-outs stand apart in the source and are kept apart here. The star is where a group is joined. X1 = CC(C)CCCC(C)C1CCC2C3CC=C4CC(OC(=O)CCC(=O)*)CCC4(C)C3CCC12C

What was measured:
[1] = tested on: RSV A long virus strain; assay type: cell-based
Method in brief: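 Plaque reduction in HEp-2 cells: virus (100 PFU/well) and serially diluted compound (8 concentrations) mixed 1 h, adsorbed 2 h, then overlaid with 0.8% CMC medium plus compound for 1 day at 37 °C. Spots counted after anti-RSV immunostaining; IC50 from normalized inhibition, CC50 from viability data.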

[2] = Cytotoxicity test in HEp-2 cells (CCK8 cell viability); assay type: cell-based; settings: human
Method in brief: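 Compound dilutions (final DMSO 0.5%) were applied for 1 day to HEp-2 cells plated at 30,000 per well the day before. CCK8 signal gave survival relative to cell and medium controls, and a four-parameter log(inhibitor)-response fit yielded CC50.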

[3] = target: hPIV-N51 (139-189) (human parainfluenza virus (hPIV))
hPIV-N51 (139-189) (human parainfluenza virus (hPIV)), sequence (P06828 139-189): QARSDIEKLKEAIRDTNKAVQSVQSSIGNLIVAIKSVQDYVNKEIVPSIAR

[4] = target: T1, F protein of RSV A long virus strain (respiratory syncytial virus, RSV A long virus strain), P12568; experiment: cell-based or functional assay
T1 chain: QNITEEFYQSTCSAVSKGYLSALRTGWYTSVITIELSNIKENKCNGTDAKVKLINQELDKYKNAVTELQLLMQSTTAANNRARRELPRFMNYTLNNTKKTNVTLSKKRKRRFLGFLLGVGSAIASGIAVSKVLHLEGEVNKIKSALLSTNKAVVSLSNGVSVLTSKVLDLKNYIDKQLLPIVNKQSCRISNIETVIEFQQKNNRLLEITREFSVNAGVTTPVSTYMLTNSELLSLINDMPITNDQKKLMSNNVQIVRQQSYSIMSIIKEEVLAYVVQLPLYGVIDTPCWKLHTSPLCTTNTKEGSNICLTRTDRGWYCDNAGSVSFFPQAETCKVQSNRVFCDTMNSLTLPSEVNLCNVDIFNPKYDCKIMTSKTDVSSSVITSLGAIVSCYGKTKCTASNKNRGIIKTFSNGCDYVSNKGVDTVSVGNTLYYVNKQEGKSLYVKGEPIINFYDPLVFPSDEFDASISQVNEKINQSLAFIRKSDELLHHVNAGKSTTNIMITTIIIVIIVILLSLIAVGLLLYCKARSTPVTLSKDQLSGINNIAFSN

[5] = substrate: F protein of hMPV virus strain A2 (human metapneumovirus, strain A2); experiment: cell-based or functional assay
[6] = substrate: F protein of hMPV virus strain B1 (human metapneumovirus, strain B1); experiment: cell-based or functional assay
[7] = substrate: F protein of hPIV Type 3 (hPIV3 C243) (human parainfluenza virus type 3, strain C243); experiment: cell-based or functional assay
[8] = RSV A long virus strain, HEp-2 cells, plaque reduction, 1 day, read-out: IC50
[9] = HEp-2 cells, CCK8, 1 day, read-out: CC50

Row | Molecule | IC50 [1] | CC50 at 1 day [2] | IC50 [1, 8] | CC50 at 1 day [2, 9] | Kd [3] | IC50/nM, Cell fusion inhibition activity (plaque reduction, RSV A long strain, HEp-2 cells) [4] | EC50 (nM), plaque reduction, hMPV A2, Vero cells [5] | EC50 (nM), plaque reduction, hMPV B1, Vero cells [6] | EC50 (nM), plaque reduction, hPIV3 C243, LLC-MK2 cells [7]
1 | Ac-SLEQVNKKIEQSLESLKKSDKINQSLEEVNKSDELLEAAAKK-NH2 [Compound 49] | > 8000 nM | > 8000 nM |  |  |  |  |  |  | 
2 | Ac-WDEFDKKIEEVNKKIEESLKKIEESDKKLEEVNKKLEAAAKK(X1)-NH2 [Compound 9] |  |  | 95.7 nM | > 8000 nM |  |  |  |  | 
3 | Ac-WDEFDKKIEEVNKKIEESLKKIEESDKKLEEVNKKLGSGSGK(X1)-NH2 [Compound 11] |  |  | 99.1 nM | > 8000 nM |  |  |  |  | 
4 | YDELVFDASQVNEKINQSLEKIRKSDELLHNVGSGSGK (modifications not checked) [Compound 25] |  |  |  |  | 74600 nM | 28.7 nM | 86.4 nM | 38.1 nM | 29.4 nM
5 | WDEFDKKIEEVNKKIEESLKKIEESDKKLEAAAKK (modifications not checked) [Compound 13] |  |  |  |  | 2280 nM | 13 nM | 11.7 nM | 6.18 nM | 35.6 nM
6 | SDEFDKKIEEVNKKIEESLKKIEESDKKLEAAAKK (modifications not checked) [Compound 16] |  |  |  |  | 5400 nM | 10.3 nM | 7.35 nM | 4.5 nM | 59 nM
7 | WDEFDASISQVNEKINQSLEEIRKSDELLHNEAAAKK (modifications not checked) [Compound 45] |  |  |  |  | 178000 nM | 12.2 nM | 200 nM | 13.1 nM | 36.3 nM
8 | WDEFDASISQVNEKINQSLEEIRKSDELLHNVNAGLGSGSGK (modifications not checked) [Compound 27] |  |  |  |  | 812 nM | 25.7 nM | 78.3 nM | 10.5 nM | 27.2 nM
9 | DEFDKKKIEEVNKKIEESLKKIEESDKKLEEVEAAAKK (modifications not checked) [Compound 22] |  |  |  |  | 20800 nM | 11.3 nM | 88.4 nM | 18 nM | 65.4 nM
10 | SDEFDKKIEEVNKKIEESLKKIEESDKKLGSGSGK (modifications not checked) [Compound 20] |  |  |  |  | 6800 nM | 19.8 nM | 7.47 nM | 4.27 nM | 59.5 nM
11 | YDELVFDASQVNEKINQSLEKIRKSDELLHNVEAAAKK (modifications not checked) [Compound 30] |  |  |  |  | 1020 nM | 14.9 nM | 94.8 nM | 51.3 nM | 48.2 nM
12 | FDEEISQVNEKINQSLAFIRKSDELLHNVNAGKSTTEAAAKK (modifications not checked) [Compound 26] |  |  |  |  | 2580 nM | 12.8 nM | 103 nM | 2.85 nM | 1.35 nM
13 | SDELVNKKIEFDKKINQSLKKIEESDKKKLEAAAKK (modifications not checked) [Compound 51] |  |  |  |  | 51.4 nM | 9.9 nM | 18.8 nM | 3.82 nM | 18.8 nM
14 | DEFDASISQVNEKINQSLEEIRKSDELLHNEAAAKK (modifications not checked) [Compound 28] |  |  |  |  | 983000 nM | 12.4 nM | 58.6 nM | 13.8 nM | 54.4 nM
15 | LVKKIDEFDASISQVNEKINQSLEEIRKSDELLHNVGSGSGK (modifications not checked) [Compound 29] |  |  |  |  | 1730 nM | 19.3 nM | 41.6 nM | 11.1 nM | 26.3 nM
16 | DEFDKKIEEVNKKIEESLKKIEESDKKLEEVNEAAAKK (modifications not checked) [Compound 14] |  |  |  |  | 495 nM | 9.9 nM | 18.9 nM | 5.36 nM | 31.4 nM
17 | DEFDKKIEEVNKKIEESLKKIEESDKKLEAAAKK (modifications not checked) [Compound 17] |  |  |  |  | 314 nM | 17.6 nM | 8.78 nM | 3.61 nM | 52.6 nM
18 | WDEFDASISQVNEKINQSLEEIRKSDELLHNVNALEAAAKK (modifications not checked) [Compound 38] |  |  |  |  | 24500 nM | 14.6 nM | 128 nM | 16.6 nM | 26.4 nM
19 | WDEFDKKIEEVNKKIEESLKKIEESDKKLHNVEAAAKK (modifications not checked) [Compound 44] |  |  |  |  | 6860 nM | 12.4 nM | 14.6 nM | 6.6 nM | 27.9 nM
